Results taken from US20040142455A1.

Key:
[1] = molecular target: Crotalus durissus terrificus (C.d.t.) venom; assay: ELISA on C.d.t. venom; dilution 1:62,500
[2] = molecular target: Crotalus durissus terrificus (C.d.t.) venom; assay: ELISA on C.d.t. venom; dilution 1:312,500

What does the source list for preimmune IgY (antibody)?
ELISA absorbance [1]: 0.001 absorbance; ELISA absorbance [2]: 0.01 absorbance
